Drawing on article PMC7614968, this text covers stoichiometry N (SrcA molecules per SteD molecule) for 1 substance.

For this assay, the target named is SteD (untagged, HIS tag cleaved) (Salmonella enterica serovar Typhimurium (14028s)). Briefly: SEC-MALS; co-purified untagged SteD-SrcA complex at 8 mg/ml on analytical Superdex200 in the dialysis buffer (20 mM phosphate pH 6.8, 150 mM NaCl, 5 % glycerol, 1 mM DTT), 0.4 ml/min. Background: Size exclusion chromatography separates by hydrodynamic size, large species first.

Turning to “SrcA (untagged, recombinant) (natural protein)”, the stoichiometry N (SrcA molecules per SteD molecule) was found to be 2.
